Measured values: the supplement of paper PMC10724198
± gives the standard deviation of the averaged measurements.

system: Saccharomyces cerevisiae; assay: protein stability index of tFT-peptide fusion (C-terminal peptide) (PSI (0-1 scale)); higher = more stable (slower turnover); settings: genetic background: wild type; temperature: 30 C
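Also: PSI is a weighted mean of sequencing reads over stability bins, variants kept only with over 10 reads, mCherry proximal and sfGFP distal, peptide attached via GGGS linker.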

In order of falling protein stability index:
1. SYPSGFPSPSHP  0.834 ± 0.062
2. THGMFVFSPPWF  0.785 ± 0.1
3. TCFWFTCSDPFF  0.773 ± 0.096
4. TNFGALNFDYAC  0.772 ± 0.028
5. TDFPRDFPPVDL  0.7526 ± 0.0029
6. TPPFPSPLPPPS  0.753 ± 0.013
7. TGAPSKQYDRFL  0.747 ± 0.045
8. TLAKSSQNLMCV  0.744 ± 0.085
9. TPPVHLPPSSFS  0.744 ± 0.0023
10. TLSPGYTFPLSL  0.743 ± 0.023
11. TISRIQTNINKK  0.742 ± 0.18
12. TKEFKKTNTTGY  0.7406 ± 0.0039
13. TLRRYSFTKKNL  0.737 ± 0.069
14. TPSLPAPGPPSP  0.735 ± 0.11
15. TLAPPLPPPPLV  0.731 ± 0.013
16. TNTRKIINMEKQ  0.717 ± 0.077
17. TCLWVCAWGFGG  0.716 ± 0.011
18. TLTDCRKKCGRV  0.715 ± 0.097
19. TREITDAKVGNE  0.7145 ± 0.0015
20. TGHFSTTPPRPH  0.714 ± 0.077
21. TAPGYLGFSPFE  0.713 ± 0.034
22. TLDTCVPGANTF  0.7127 ± 0.001
23. TQLNTLSTINRT  0.71 ± 0.11
24. THHTPKILNTKR  0.708 ± 0.063
25. TGVSTRVTHTAP  0.707 ± 0.014
26. SYRHHPTVPSTY  0.705 ± 0.057
27. TPWIRGRTHPGR  0.705 ± 0.016
28. TPSPHPRYRASH  0.703 ± 0.026
29. TRDTLNLMYKRL  0.703 ± 0.046
30. TKKKKKEKGDST  0.702 ± 0.1
31. TPPLCAPPLPPP  0.7022 ± 0.0054
32. TPQPPPHSTYRC  0.702 ± 0.031
33. TRGDCFAVRKAR  0.702 ± 0.027
34. TCFPDLLVLPAR  0.7008 ± 0.0022
35. THSTLRRFSGYS  0.7005 ± 0.001
36. TNSKLTKERTEI  0.699 ± 0.049
37. TQVGLGSFYSLG  0.697 ± 0.079
38. TPASCHQFGYQH  0.695 ± 0.026
39. THPPSFHPSRAP  0.693 ± 0.092
40. TIIEHYMMINEK  0.692 ± 0.064
41. TQNRGLSSFRAF  0.691 ± 0.035
42. TPSDHRRLRGSN  0.689 ± 0.045
43. TPSPLAILSSTC  0.6888 ± 0.0047
44. TCAPTRISRTPG  0.6883 ± 0.00073
45. TFNRIFGNALPG  0.688 ± 0.044
46. TFPATSLPSFSL  0.6861 ± 0.0031
47. TKFKPKILEKCT  0.686 ± 0.021
48. TCVLPDLNTRWS  0.685 ± 0.02
49. TGKTHSGNKYER  0.684 ± 0.059
50. TLGGEITYKVKT  0.684 ± 0.034
51. TRLTSSGVGSVP  0.683 ± 0.1
52. TPPRVYPLLRTS  0.682 ± 0.016
53. TGYDERSRFIEI  0.68 ± 0.1
54. TPRPPPSSFLSL  0.679 ± 0.05
55. TARQNRARPGHP  0.678 ± 0.022
56. TPKETGNNNMPN  0.677 ± 0.09
57. TNILMHGHKRSC  0.676 ± 0.13
58. TPRYVGLIKINK  0.676 ± 0.03
59. TEVWSGFARWGG  0.675 ± 0.046
60. TLDNEKKKKRNT  0.674 ± 0.022
61. TRDVPVTPQWGY  0.671 ± 0.076
62. TNRIRGTARKVK  0.67 ± 0.055
63. TRLVRQLNNNLE  0.667 ± 0.013
64. TRERRQAAGGGT  0.665 ± 0.055
65. TLYHWELEPRNP  0.664 ± 0.013
66. TLRVQNKRKSEE  0.663 ± 0.028
67. TARIIAHPQTRI  0.661 ± 0.032
68. SYRPPYTQPTDL  0.658 ± 0.064
69. TDCAPRGGRWKR  0.656 ± 0.14
70. TLAPVRAFVEFR  0.656 ± 0.022
71. THPPLTSRSSPP  0.654 ± 0.044
72. TLCLPPPVAWQH  0.6544 ± 0.0047
73. TFRKMEKKKDGG  0.652 ± 0.018
74. TNSVGCRIGGKQ  0.646 ± 0.02
75. TLTPPPSTSLPP  0.645 ± 0.067
76. TLSLILPQLPPL  0.643 ± 0.071
77. TPGDAVICSFYI  0.642 ± 0.015
78. TPGGDPLAPRQS  0.641 ± 0.061
79. TFFFLGSVFSLA  0.638 ± 0.043
80. TLTSPFGSPTWD  0.638 ± 0.31
81. TPPPPPPPLRAT  0.638 ± 0.038
82. TFPKKKGLLNIS  0.636 ± 0.028
83. TKQKKIEDEEII  0.6314 ± 0.0017
84. TNFSRCFLFRSW  0.629 ± 0.025
85. TKSQGGLTWASC  0.626 ± 0.011
86. TPASPSPPPRPP  0.625 ± 0.019
87. TGSLLWGCFALL  0.623 ± 0.054
88. TPPPPAPPHPPP  0.62 ± 0.036
89. TFFLPPSCFYPP  0.616 ± 0.051
90. TLYLCALPALSR  0.615 ± 0.0075
91. TASPAHTPTKTR  0.608 ± 0.051
92. TILPWCLFLVAD  0.6 ± 0.0098
93. TRNRKEWKIVIL  0.594 ± 0.042
94. TNVPVLTLMVYL  0.591 ± 0.089
95. TRALPIVLAVGP  0.59 ± 0.026
96. TNARDPPGPTPH  0.586 ± 0.06
97. TGEFILLFSWFV  0.584 ± 0.0024
98. TPMGFSRFLLSL  0.553 ± 0.03
99. TGEIREEWRKNI  0.54 ± 0.03
100. TKIKETTKKKQL  0.522 ± 0.059
101. THSLCIKPRTVV  0.517 ± 0.0056
